# Measurements published in the DeepSol protein solubility set.
# Assay: soluble on expression in E. coli; label from the status in PepcDB or PDB records
row,Sequence,soluble on expression in E. coli
1,MGREFLDLFEQWAESYDRSVEGYDEQYRDVFAGYDRILSTVADKAGQVVLEFGVGTGNLTKKLLERGKRVYGIEPSAPMRKKAAEKLNGRAVILEGDFLQFPTPPEPIDTIASTYAFHHLTDAEKDEALAKYSQLLHPGGKIVFADTAFRDKEAFRQAIEEARARGFHDLADDLEREYYTTLDVLASLFSKHGFSASFAQQNAFVWVMEAVKQTT,not soluble
2,MGSDKIHHHHHHVHPTLPHAGKNWPLSARDSPATAMAGKGINAVCLFRYQRRWHQSCFILEHAPGTRNPMTWTECLAVTAFGAFVIDRYDWTGTVKRSSNDEELLVHERLGVVSVQTSPLRRAKPALRHLRGLLIEYDCPVECIAVFAAPHCALDPTLPETTLQASELHHFMRTRFNRFRDSHRQYLDSERIAAYLQLHCTDWGENCV,not soluble
3,MGASKDAMDEEGNAAADLGLVARIRESFDSLTATEREAAQFILGHLTDVLVCNSVELSQLSGISQPTLSRLYRKLGYANAGEFRRDVRRVHRPGSPELSRHTQCDDLVADHLRRDEESLKRTFEGIDRAQLSSACQAMATAPHVAVVGYHSSYPVALHMREQLMRLRGNVDILPNPGQSIAEDLVDYAAGDVIVIIGVGRRLPFFSRLIDVMLERGLTVVVIGDISARNAVIGRNVAFFKVVLSSHVLTSFTAAFALIALMVDEVGKCLVDTEDEVHARIEGINDCFDALNELED,not soluble
4,MGHHHHHHSHQMVNQQQNKFDLRPLMEAVDTVKQKITLLENNDQRLAVLEEETNKHDTHINIHKAQLSKNEERFKLLEGTCYNGKLIWKVTDYKMKKREAVDGHTVSIFSQSFYTSRCGYRLCARAYLNGDGSGRGSHLSLYFVVMRGEFDSLLQWPFRQRVTLMLLDQSGKKNIMETFKPDPNSSSFKRPDGEMNIASGCPRFVAHSVLENAKNAYIKDDTLFLKVAVDLTDLEDL,not soluble
5,MRADELPSKEEIEMHKDSCKYFSNDTEEEETEDEEENGEVAHAKAVAEEFGKSSKSKNVSSSMELDDEVAEGLKELDMDNYDEEDDGIEIFSSGRGDLYYKSNEMDPYLKRNDDHDDDSDDDPPILPTDLVIVCAMTDDKEANRLDVYVSEDTSHGSPNMYNHHYRIIPAIPLCTAWLDCPLKGGERGNFLAVGSDGTPTIEIWDLDAWFDMLPCVQLGGQNKEGNYKQGSHTRSVLGLAWNKEFRNILASASADKKVKVWDVATGTCKITMEHHTKEVQAVAWNHYAPEVLLSGSFDQTVVLKDGRQPSHSGFKWSVMSDVESLAWDPHSEHSFVVSLEDGTVKGFDVRQASISASESNPSFTINGHDEAATSVSYNISAPNLLATGSKDRTVKLWDLSNNEPSCIATHNPNAGGLFFIAFSPDNPFLLAMGGVMGELKLWDTLSDTNVSSRYGSREVRP,soluble
6,MAQKTFTVTADSGIHARPATTLVQAASKFDSDINLEFNGKTVNLKSIMGVMSLGIQKGATITISAEGSDEADALAALEDTMSKEGLGE,soluble
7,MGSDKIHHHHHHMIRLDNISKQNGHQILFIEASMGVQKGEKVGLVGPNGAGKTTLFRMITGQEQPDDGIVSIDAGMRIGYFSQDVGEMSGQSAVAAVMDGVGPVSALAAEMATLEAAMVDPDQADQLDAVMERYGEVLERFQELDGYALEARAREVLAGLSFSQERMDADVGLLSGGWKMRVALARILLMRPDGMLLDEPSNHLDLESLIWLESFLKNYDGALLMTSHDRAFMNRIIGKVIEIDAGSLITYSGDLDFYDQQRALSEAQRQAQYERQQAMLAKEIKFIEKFKARASHAAQVQSRVKKLDKIERVEAPRRRQTVQFEFQSPPRSGEDVISLRGVHKGYGERPIYQDLDFLVRRKERWAVLGANGAGKSTLLKLVAGDTKPDQGVVNIGASVKMGYFAQHSMDLLDGEETIFESLERSFPQAGQGALRTLAGCFGFSGDDVEKPCRVLSGGEKARLVMAKMLFDPPNLLVLDEPTNHLDMVTKEMLVASLADFEGTMLFVSHDRHFLAALSNRVLELTPEGIHQYGGGYTEYVARTGQEAPGLHPGG,not soluble
8,MILYDAIMYKYPNAVSRKDFELRNDGNGSYIEKWNLRAPLPTQAELETWWEELQKNPPYEPPDQVELLAQELSQEKLARKQLEELNKTLGNELSDIKLSLLSLKGDYAELEHHHHHH,soluble
9,MKKAADRPTSAVNGRHESPATSTNNTQNSGTPSLNGQDPLRSTSSSPLFGTEPLPEDDHASCPYCQQDFRKPRVLDCLHSMCEDCIIAQLDGHLQAKSAAIEEKKRATAAMLDCELETPKVKERPTPPGVIRCPICSQESHVGNDVRYVHAMLLDFVRLAEMKEVEVEKMVAHHRKPCTACKSEQEAIAFCDQCSSDLCENCTTAHTVMNLFQGHTVTTFADLRQPGAHPELRQVMCSTHNQHMRYLCAACETAACKQCLEVDHLNHKIIDINELVINAIREDVTSTVDRVEKKYNNSVADMNSLPDKSQQLNEQYEIAKYRVDKHYEELRNSIEEAYQKSVNDLEEARIRQESNIDEMYRKSQVNEARVHDAINFTRRLLTKGNGLELVVSRKKVIQQFGNLSHAIPSHGHQVELEFYTPSKKQIDHFVHQLTGTVIGRVIQPTVKDVGNATAASTDRSERGGSQPGGGRSSSAANPSQQDEWGRPVYSQNPQLGAIGGERKKNTQNGTNGTRGDSNAFGGWPPSSHPPESTTPPPVTGPQTMITGAPTQTAAPIVSQQQLSNLPNAAAMAAAAAGMRPDLVALAANHMDLAALTNGSTNGSQTPLPESIFPAMWNARQGLPAVATPTTTGLSTNASAAYMQQKLAAAQLQALASHRLNPQIMSMNNLRTNQTIQEFLAMNAMGNLSLNPQLTSAAAAALAATAAANSAVTTTASDVGQSQNSANAQRVSDLKVHSVFGTSQQGSTIRELHCPSGFCLSDTDDILIADTNNHRVVVCGPPHPWKIGRPGTDDGQLCFPRKVIALRGEAVRYVVLDKGGDGKTRAQIFEARGEFVKRLNMMALVPRGGIEVSAAAATPNGQLLLVDTAGFVYSIDVDAPRVTFWFDASTQLGEASDVAMFDNLIYITDFKHHCVQVYTSEGKFIRKMGEPSQTPYPIGIDVSKAGEVLVADTHGNHLHVVVFSPEGQHIHSFTHNEFRLSRCVGLRIAKSGHIVTLCKHNHTLFVFKPLILPNGLPVPTPVPHATSLISKFQ,not soluble
10,MGSDKIHHHHHHMKTCWQILEIESTTQIDIIRQAYLARLPLCHPETDPQGFKALRQAYEEALRLAVNPVEEADDEEKDATAEHEILRAFRTLLDSESDRFQPSAWQKFIQQLNTWNMEDVDQLRWPLCAIAIEARYLSLNCASLLAERLNWHSFNDSEGMDEEEREAFLEAIQAGDCFDFLSLLEYPVALQNQTVEYYFALERCCRYHPDYVTAFLAMEGPWFIPDDAKLHRKLLRWYSSVQTGMVELIPVAKQWQAEEPESEDARYYQCAQRLYCGEGESLLADLGAYWESYPSTQADNLLLQWSKRHCPDYFALLVMVIEARSMVDAQGQPLKYVPGESARTRLLWAEILHSGKLSPLGQSFIESLFFKRKAWAWWKSRVGSETEEDSPLLDLYRVAEQVVLEAFPKQEMLARLNTRLEGGDAHPLEAIITRMLLTKVKLEPEDEDVDEPTPENHEEKNDEGEKPQSITSIIKISLTVLVIGYALGKIAMLFS,not soluble
11,MTTNYVLRKPWRWLTISKDMMINEQIRAREVRLVGANGDQLGIKSRNDALDLAANLNLDLVLVAPNAKPPVCRIMDYGKFRFEQQKKEKEQRKNQKVISMKEVRLSPTIDEHDFNTKLRNAIKFLEKGDKVKASIRFKGRAITHKEIGQRVLDRFSEACAEVSTIESKPKMEGRSMFLVLAPKNDK,not soluble
12,MKKFTLEEFLDLLKKYNVEEIEGVKIEGDLEIEFEGSSIDLSAIAPLYSMLSEFGNFLYHANMALGYLQRLSAALGIPTPFAAQPQLAPAAPAAPAEVPAVEELKIPAELVRAKFEPYKEEYPGKIEEVVLGATKADGGTREYTVTLGGERSLAFYTFDAPQPHLPAIAIDVFDRRPMLAKAVRMHYEDVLDNPAEWARKCVKKFGADLVTLHLISTDPLLDDTPASEAVKVLEDVLQAVKCPIIVGGSGNKEKDPEVLEKAAEVAEGERIMLASATLDMDWERIANAAKKYGHVVLSWTQMDINNQKTLNRYLLKRVEMPRDSIVMDPTTAALGYGLDYAFTNMERIRISGLKGDTDLNFPISSGTTNAWGAREAWMVDSPIEEDTPWGPRELRGPIWEIITGLTLSLAGVDLFMMMHPVAVAVLKEVFNTLGGKVSGGVADPGEWIFMEV,not soluble
13,LALQAKQYGDFDRYVLALSWQTGFCQSQHDRNRNERDECRLQTETTNKADFLTVHGLWPGLPKSVAARGVDERRWMRFGCATRPIPNLPEARASRMCSSPETGLSLETAAKLSEVMPGAGGRSCLERYEYAKHGACFGFDPDAYFGTMVRLNQEIKESEAGKFLADNYGKTVSRRDFDAAFAKSWGKENVKAVKLTCQGNPAYLTEIQISIKADAINAPLSANSFLPQPHPGNCGKTFVIDKAGY,soluble
14,MSLKLLIFEYATASGIDDPEIFLEGRSMLEALLTDFRDFDVEFLLSERFADMDIGAGFRPSIIGDLDEWLQENLEGFDACIFIAAEEGMELYRLTRIVEESGVLLLGSSGDAVRTCSDKRLTYRALDGRVPLIGTYEPEEIVDVPSRLIVKPADGVACQGIRILEPGDEPDLSGDMIIQDFIEGESVSVSLLSNGEKALPLSLNRQDIIMAGSELEYNGGSAPVDHEMREDAFTVARRAVESITGLRGYVGVDLILADEPYVVEINSRITTPYIGLRRVTEANLGHLILESVLGRLPSGVKFNGTASFRKGIDGMVVEVTEGFRGYEGHHHHHH,soluble
15,MISIIIPAFNEERRIGRTLEKISSTLPNAEIVVVFDGHDNTPEVVKKFPVKLLISESRLGKGGAIKRGINESNFQRVLLLDADFPITEEELDKILSTDADLVIPKRKIVGMPLKRKFLHKGFIIITKILFPSLAKFSDFQAGVKLVNREKVLDILDELIINDFLFDVNLIYGFKRRHYKVKEVEINYIHDESDSKISKKLIKVIILMFLSLIKLRVYYSPFRKILYTKTYLKAQDYILRKLRLEHHHHHH,not soluble
16,MPDLSAAEFTLLQGAHLFAPEDRGICDVLLANGKIIAVGAGIPGDIVPDCTVINLSGRMLCPGFIDQHVHLIGGGGEAGPTTRTPEVSLSRLTEAGITTVVGLLGTDSVSRHPASLLAKTRALNEEGITAWMLTGAYHVPSPTITGSVEKDVALIDRVIGVKCAVSDHRSAAPSGNQLASMAAESRVGGLLGGKPGVSVFHMGSSKKGLQPLYDILENSDVPIGKLLPTHVNRSESLFEQALAFALKGGVIDITTSIPDPVAPAEGIARAVKAGVPLSRVTLSSDGNGSQPLFDAAGNLTGIGVAGFESLLETLQTLVNHYGFSLANALRPLTTSVAAFLSLDGKGEIRPGNDADLLVFSADLRIEQVYARGKRMVNEGKACVKGTFEPA,not soluble
17,MTTQTIDSAPHATWFVGASYGGTDDQMPRFLAEGIWENGYDDKLLEVVRSMRPGERIAIKSSYTRKHGLPFDSRGRAVSVMGIKAVGTITENLNDGKRVKVDWAKVEPVREWYFYTHRATIWRVLPGEWMNDALIAFAFDGKPQDVDRFRNEPFWRERYGTTSPEKQRFEWTDFYEAVAEKLLAHADDRTPLIEGIHEIASRVPGLTYLQDKFPDGTSGPLRDICPFTTMGTFNRSMTDANRKTLAGELAKLLGVTVPVPPSFEGIPVLNNQRSWFFAYADKRGAGDIDALWKVFVAASKMVDGDQLDTRDAFIRAYDEATQVWGVAWNLSTGLYWAHPWEFLTLDSQSRHYINKRLGLNVAISGQQGPCDGRAYLKLLDDLRSRFGEDGYPVHSFPDLSLASWMYKDPVDEPVPAGDIGTNAGAEQETEGEVREAFQVAAPIVPYSVEDILKDGCFLERAEIDRLLDRLRTKKNLILQGPPGTGKTWLAKRLAFALMGQKDDSKVRAVQFHPNLSYEDFVRGWRPTGEGKLSLADGVFMEAIKAASKDPSSKFVVVIEEINRGNPAQIFGELLTLLEAGKRTPNEALELCYPDADGKRRPVHIPENLYVVGTMNIADRSLALVDLALRRRFAFVGLEPRLGQVWRDWVVKECAVDPGLVADIERRIAELNDQIAADARLGKQFRIGHSYVTPAHRLEAGDTKKWFLQVVETEIGPLLDEYWFDAPDEAQKAIARLTQGWLEHHHHHH,soluble
